{"source": "patent US7544661", "about": "(NORTHWESTERN UNIVERSITY, dated 2009)", "note": "Ends that are not written are not given here. Asp(CONHC12) = Asp whose side chain is modified with dodecylamine"}
{"biological_target": "T1, recombinant human bone morphogenetic protein-2 (human, UniProt P12643 283-396)", "T1 construct": "Bought growth factor (Peprotech), physisorbed on microtiter wells for panning and ELISA; also called rh-BMP-2; BMP-2", "T1 sequence (P12643 283-396 limits assumed)": "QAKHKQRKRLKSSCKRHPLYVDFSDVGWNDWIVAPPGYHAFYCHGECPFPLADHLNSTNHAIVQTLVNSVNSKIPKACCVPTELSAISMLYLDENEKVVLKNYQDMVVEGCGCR", "experiment": "phage ELISA on coated growth factor, anti-M13-HRP; grade of relative binding strength, 1 highest to 4 lowest"}
{"binder": "DVSPAYH (Tested as M13 phage clone)", "binding result": "binds"}
{"binder": "PGPTVQG (Tested as M13 phage clone)", "binding result": "binds"}
{"binder": "PIQPDER (Tested as M13 phage clone)", "binding result": "binds"}
{"binder": "WPALFTH (Tested as M13 phage clone)", "binding result": "binds"}
{"binder": "LHYPFMT (Tested as M13 phage clone)", "binding result": "binds"}
{"binder": "QQTQAQH (Tested as M13 phage clone)", "binding result": "binds"}
{"binder": "PFDPPVR (Tested as M13 phage clone)", "binding result": "binds"}
{"binder": "KVPPANT (Tested as M13 phage clone)", "binding result": "binds"}
{"biological_target": "T2, recombinant human transforming growth factor β1 (human, UniProt P01137 279-390)", "T2 construct": "Bought growth factor (Peprotech), physisorbed on microtiter wells for panning and ELISA; also called rh-TGF-β1; TGF-β1", "T2 sequence (P01137 279-390 limits assumed)": "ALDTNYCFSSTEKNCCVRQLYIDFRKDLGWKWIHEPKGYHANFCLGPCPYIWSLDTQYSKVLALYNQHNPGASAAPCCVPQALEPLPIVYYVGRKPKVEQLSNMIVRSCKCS", "experiment": "phage ELISA on coated growth factor, anti-M13-HRP; grade of relative binding strength, 1 highest to 4 lowest"}
{"binder": "AWKSVTA (Tested as M13 phage clone)", "binding result": "binds"}
{"binder": "LPLGNSH (Tested as M13 phage clone)", "binding result": "binds"}
{"binder": "LRNYSHS (Tested as M13 phage clone)", "binding result": "binds"}
{"binder": "GKYPPTS (Tested as M13 phage clone)", "binding result": "binds"}
{"binder": "RVSTWDT (Tested as M13 phage clone)", "binding result": "binds"}
{"binder": "VYRHLPT (Tested as M13 phage clone)", "binding result": "binds"}
{"binder": "LPSPIQK (Tested as M13 phage clone)", "binding result": "binds"}
{"binder": "PAPRWIH (Tested as M13 phage clone)", "binding result": "binds"}
{"binder": "RTTSPTA (Tested as M13 phage clone)", "binding result": "binds"}
{"biological_target": "T1, recombinant human bone morphogenetic …", "experiment": "cell-based or functional assay"}
{"binder": "{Asp(CONHC12)}-VVVVVVKKKSGGGYPVHPST (also: reverse polarity: Asp(CONHC12) built on Rink amide resin, end direction unclear)", "note": "[Asp(CONHC12)-Val-Val-Val-Val-Val-Val-Lys-Lys-Lys-Ser-Gly-Gly-Gly-Tyr-Pro-Val-His-Pro-Ser-Thr (9)]", "expression of osteocalcin in mesenchymal stem cells (western blot)": "0.5 ratio (binding gels : no binding gels)"}
{"biological_target": "T1, recombinant human bone morphogenetic …", "experiment": "fluorescence depolarization", "units": {"Ka": "M⁻¹"}}
{"binder": "KQALTQT", "Ka": 210000}
{"binder": "YPVHPST", "Ka": "1.9e+06"}
